In the supplement of paper PMC10567573:

B1: RSPH3 (parent)
chain: QRLEEQERRHREEKERRKKQQWEI

Variants of: B1
Experiment: protein stability index of a GFP-peptide fusion (GPS, HEK-293T) (PSI 1-6); higher = more stable
Details: c terminus: a fixed tail appended
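Note: lentivirally expressed fusions sorted by FACS into six bins by GFP to DsRed ratio, PSI derived from sequencing read proportions per bin multiplied by bin number.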

Row | Variant | protein stability index
1 | QCLEEQERRHREEKERRKKQQWEI | 4.58
2 | QDLEEQERRHREEKERRKKQQWEI | 5.14
3 | QELEEQERRHREEKERRKKQQWEI | 5.24
4 | QFLEEQERRHREEKERRKKQQWEI | 4.48
5 | QGLEEQERRHREEKERRKKQQWEI | 4.54
6 | QHLEEQERRHREEKERRKKQQWEI | 4.53
7 | QILEEQERRHREEKERRKKQQWEI | 3.83
8 | QKLEEQERRHREEKERRKKQQWEI | 4.26
9 | QLLEEQERRHREEKERRKKQQWEI | 4.63
10 | QMLEEQERRHREEKERRKKQQWEI | 4.06
11 | QNLEEQERRHREEKERRKKQQWEI | 5.06
12 | QPLEEQERRHREEKERRKKQQWEI | 4.1
13 | QQLEEQERRHREEKERRKKQQWEI | 4.94
14 | QSLEEQERRHREEKERRKKQQWEI | 5
15 | QTLEEQERRHREEKERRKKQQWEI | 5.02
16 | QVLEEQERRHREEKERRKKQQWEI | 4.47
17 | QWLEEQERRHREEKERRKKQQWEI | 3.79
18 | QYLEEQERRHREEKERRKKQQWEI | 4.07
19 | QRAEEQERRHREEKERRKKQQWEI | 4.37
20 | QRCEEQERRHREEKERRKKQQWEI | 4.36
21 | QRDEEQERRHREEKERRKKQQWEI | 4.82
22 | QREEEQERRHREEKERRKKQQWEI | 5.28
23 | QRFEEQERRHREEKERRKKQQWEI | 4.2
24 | QRGEEQERRHREEKERRKKQQWEI | 4.75

Row | Variant | protein stability index
25 | QRHEEQERRHREEKERRKKQQWEI | 4.54
26 | QRIEEQERRHREEKERRKKQQWEI | 5
27 | QRKEEQERRHREEKERRKKQQWEI | 4.4
28 | QRMEEQERRHREEKERRKKQQWEI | 4.81
29 | QRNEEQERRHREEKERRKKQQWEI | 4.59
30 | QRPEEQERRHREEKERRKKQQWEI | 5
31 | QRQEEQERRHREEKERRKKQQWEI | 4.72
32 | QRREEQERRHREEKERRKKQQWEI | 5.08
33 | QRSEEQERRHREEKERRKKQQWEI | 4.91
34 | QRTEEQERRHREEKERRKKQQWEI | 4.99
35 | QRVEEQERRHREEKERRKKQQWEI | 4.82
36 | QRWEEQERRHREEKERRKKQQWEI | 4.06
37 | QRYEEQERRHREEKERRKKQQWEI | 4.43
38 | QRLAEQERRHREEKERRKKQQWEI | 4.21
39 | QRLCEQERRHREEKERRKKQQWEI | 4.38
40 | QRLDEQERRHREEKERRKKQQWEI | 4.56
41 | QRLFEQERRHREEKERRKKQQWEI | 4.47
42 | QRLGEQERRHREEKERRKKQQWEI | 5.08
43 | QRLHEQERRHREEKERRKKQQWEI | 4.18
44 | QRLIEQERRHREEKERRKKQQWEI | 4.17
45 | QRLKEQERRHREEKERRKKQQWEI | 4.44
46 | QRLLEQERRHREEKERRKKQQWEI | 4.46
47 | QRLMEQERRHREEKERRKKQQWEI | 4.1
48 | QRLNEQERRHREEKERRKKQQWEI | 4.9

Row | Variant | protein stability index
49 | QRLPEQERRHREEKERRKKQQWEI | 4.48
50 | QRLQEQERRHREEKERRKKQQWEI | 4.46
51 | QRLREQERRHREEKERRKKQQWEI | 3.84
52 | QRLSEQERRHREEKERRKKQQWEI | 4.84
53 | QRLTEQERRHREEKERRKKQQWEI | 4.15
54 | QRLVEQERRHREEKERRKKQQWEI | 3.99
55 | QRLWEQERRHREEKERRKKQQWEI | 4.04
56 | QRLYEQERRHREEKERRKKQQWEI | 3.67
57 | QRLEAQERRHREEKERRKKQQWEI | 4.63
58 | QRLECQERRHREEKERRKKQQWEI | 4.38
59 | QRLEDQERRHREEKERRKKQQWEI | 4.55
60 | QRLEFQERRHREEKERRKKQQWEI | 3.61
61 | QRLEGQERRHREEKERRKKQQWEI | 4.53
62 | QRLEHQERRHREEKERRKKQQWEI | 4.59
63 | QRLEIQERRHREEKERRKKQQWEI | 4.62
64 | QRLEKQERRHREEKERRKKQQWEI | 3.39
65 | QRLELQERRHREEKERRKKQQWEI | 4.44
66 | QRLEMQERRHREEKERRKKQQWEI | 4.59
67 | QRLENQERRHREEKERRKKQQWEI | 3.67
68 | QRLEPQERRHREEKERRKKQQWEI | 4.42
69 | QRLEQQERRHREEKERRKKQQWEI | 5.01
70 | QRLERQERRHREEKERRKKQQWEI | 4.13
71 | QRLESQERRHREEKERRKKQQWEI | 4.5
72 | QRLETQERRHREEKERRKKQQWEI | 4.01

Row | Variant | protein stability index
73 | QRLEVQERRHREEKERRKKQQWEI | 4.58
74 | QRLEWQERRHREEKERRKKQQWEI | 3.98
75 | QRLEYQERRHREEKERRKKQQWEI | 4.28
76 | QRLEEAERRHREEKERRKKQQWEI | 4.9
77 | QRLEECERRHREEKERRKKQQWEI | 4.63
78 | QRLEEDERRHREEKERRKKQQWEI | 4.6
79 | QRLEEEERRHREEKERRKKQQWEI | 4.91
80 | QRLEEFERRHREEKERRKKQQWEI | 4
81 | QRLEEGERRHREEKERRKKQQWEI | 4.59
82 | QRLEEHERRHREEKERRKKQQWEI | 4.39
83 | QRLEEIERRHREEKERRKKQQWEI | 4.62
84 | QRLEEKERRHREEKERRKKQQWEI | 4.19
85 | QRLEELERRHREEKERRKKQQWEI | 4.49
86 | QRLEEMERRHREEKERRKKQQWEI | 3.96
87 | QRLEENERRHREEKERRKKQQWEI | 4.4
88 | QRLEEPERRHREEKERRKKQQWEI | 4.47
89 | QRLEERERRHREEKERRKKQQWEI | 4.42
90 | QRLEESERRHREEKERRKKQQWEI | 4.82
91 | QRLEETERRHREEKERRKKQQWEI | 4.81
92 | QRLEEVERRHREEKERRKKQQWEI | 4.85
93 | QRLEEWERRHREEKERRKKQQWEI | 4.18
94 | QRLEEYERRHREEKERRKKQQWEI | 4.48
95 | QRLEEQARRHREEKERRKKQQWEI | 4.36
96 | QRLEEQCRRHREEKERRKKQQWEI | 4.15

Row | Variant | protein stability index
97 | QRLEEQDRRHREEKERRKKQQWEI | 4.04
98 | QRLEEQFRRHREEKERRKKQQWEI | 4.41
99 | QRLEEQGRRHREEKERRKKQQWEI | 3.95
100 | QRLEEQHRRHREEKERRKKQQWEI | 4.28
101 | QRLEEQIRRHREEKERRKKQQWEI | 3.86
102 | QRLEEQKRRHREEKERRKKQQWEI | 4.36
103 | QRLEEQLRRHREEKERRKKQQWEI | 4.55
104 | QRLEEQMRRHREEKERRKKQQWEI | 3.38
105 | QRLEEQNRRHREEKERRKKQQWEI | 4.25
106 | QRLEEQPRRHREEKERRKKQQWEI | 4.75
107 | QRLEEQQRRHREEKERRKKQQWEI | 3.38
108 | QRLEEQRRRHREEKERRKKQQWEI | 4.26
109 | QRLEEQSRRHREEKERRKKQQWEI | 3.88
110 | QRLEEQTRRHREEKERRKKQQWEI | 4.95
111 | QRLEEQVRRHREEKERRKKQQWEI | 4.57
112 | QRLEEQWRRHREEKERRKKQQWEI | 4.25
113 | QRLEEQYRRHREEKERRKKQQWEI | 3.81
114 | QRLEEQEARHREEKERRKKQQWEI | 4.86
115 | QRLEEQECRHREEKERRKKQQWEI | 3.71
116 | QRLEEQEDRHREEKERRKKQQWEI | 4.79
117 | QRLEEQEERHREEKERRKKQQWEI | 4.95
118 | QRLEEQEFRHREEKERRKKQQWEI | 4.28
119 | QRLEEQEGRHREEKERRKKQQWEI | 5.02
120 | QRLEEQEHRHREEKERRKKQQWEI | 4.57

Row | Variant | protein stability index
121 | QRLEEQEIRHREEKERRKKQQWEI | 4.42
122 | QRLEEQEKRHREEKERRKKQQWEI | 4.33
123 | QRLEEQELRHREEKERRKKQQWEI | 3.69
124 | QRLEEQEMRHREEKERRKKQQWEI | 3.7
125 | QRLEEQENRHREEKERRKKQQWEI | 3.93
126 | QRLEEQEPRHREEKERRKKQQWEI | 5.03
127 | QRLEEQEQRHREEKERRKKQQWEI | 4.61
128 | QRLEEQESRHREEKERRKKQQWEI | 4.64
129 | QRLEEQETRHREEKERRKKQQWEI | 4.97
130 | QRLEEQEVRHREEKERRKKQQWEI | 5.02
131 | QRLEEQEWRHREEKERRKKQQWEI | 4.09
132 | QRLEEQEYRHREEKERRKKQQWEI | 4.24
133 | QRLEEQERAHREEKERRKKQQWEI | 5.32
134 | QRLEEQERCHREEKERRKKQQWEI | 4.84
135 | QRLEEQERDHREEKERRKKQQWEI | 4.97
136 | QRLEEQEREHREEKERRKKQQWEI | 4.49
137 | QRLEEQERFHREEKERRKKQQWEI | 4.98
138 | QRLEEQERGHREEKERRKKQQWEI | 4.85
139 | QRLEEQERHHREEKERRKKQQWEI | 5.33
140 | QRLEEQERIHREEKERRKKQQWEI | 4.4
141 | QRLEEQERKHREEKERRKKQQWEI | 4.21
142 | QRLEEQERLHREEKERRKKQQWEI | 4.81
143 | QRLEEQERMHREEKERRKKQQWEI | 5.37
144 | QRLEEQERNHREEKERRKKQQWEI | 4.56

Row | Variant | protein stability index
145 | QRLEEQERPHREEKERRKKQQWEI | 4.92
146 | QRLEEQERQHREEKERRKKQQWEI | 4.63
147 | QRLEEQERSHREEKERRKKQQWEI | 3.85
148 | QRLEEQERTHREEKERRKKQQWEI | 4.51
149 | QRLEEQERVHREEKERRKKQQWEI | 4.85
150 | QRLEEQERWHREEKERRKKQQWEI | 4.47
151 | QRLEEQERYHREEKERRKKQQWEI | 4.66
152 | QRLEEQERRAREEKERRKKQQWEI | 4.94
153 | QRLEEQERRDREEKERRKKQQWEI | 4.38
154 | QRLEEQERREREEKERRKKQQWEI | 5.26
155 | QRLEEQERRFREEKERRKKQQWEI | 4.48
156 | QRLEEQERRGREEKERRKKQQWEI | 4.51
157 | QRLEEQERRIREEKERRKKQQWEI | 4.5
158 | QRLEEQERRKREEKERRKKQQWEI | 4.84
159 | QRLEEQERRLREEKERRKKQQWEI | 4.87
160 | QRLEEQERRMREEKERRKKQQWEI | 4.43
161 | QRLEEQERRNREEKERRKKQQWEI | 5.08
162 | QRLEEQERRPREEKERRKKQQWEI | 4.44
163 | QRLEEQERRQREEKERRKKQQWEI | 5.04
164 | QRLEEQERRRREEKERRKKQQWEI | 3.69
165 | QRLEEQERRSREEKERRKKQQWEI | 4.53
166 | QRLEEQERRTREEKERRKKQQWEI | 4.79
167 | QRLEEQERRVREEKERRKKQQWEI | 4.45
168 | QRLEEQERRWREEKERRKKQQWEI | 4.49

Row | Variant | protein stability index
169 | QRLEEQERRYREEKERRKKQQWEI | 4.05
170 | QRLEEQERRHAEEKERRKKQQWEI | 4.91
171 | QRLEEQERRHCEEKERRKKQQWEI | 4.83
172 | QRLEEQERRHDEEKERRKKQQWEI | 4.93
173 | QRLEEQERRHEEEKERRKKQQWEI | 5.19
174 | QRLEEQERRHFEEKERRKKQQWEI | 4.64
175 | QRLEEQERRHGEEKERRKKQQWEI | 5.08
176 | QRLEEQERRHHEEKERRKKQQWEI | 4.51
177 | QRLEEQERRHIEEKERRKKQQWEI | 4.22
178 | QRLEEQERRHKEEKERRKKQQWEI | 4.23
179 | QRLEEQERRHLEEKERRKKQQWEI | 4.25
180 | QRLEEQERRHMEEKERRKKQQWEI | 4.6
181 | QRLEEQERRHNEEKERRKKQQWEI | 5.19
182 | QRLEEQERRHPEEKERRKKQQWEI | 5.34
183 | QRLEEQERRHQEEKERRKKQQWEI | 4.67
184 | QRLEEQERRHSEEKERRKKQQWEI | 4.35
185 | QRLEEQERRHTEEKERRKKQQWEI | 4.62
186 | QRLEEQERRHVEEKERRKKQQWEI | 4.24
187 | QRLEEQERRHWEEKERRKKQQWEI | 4.44
188 | QRLEEQERRHYEEKERRKKQQWEI | 4.68
